This assay deals with T1, influenza A/WSN/33 virus nucleoprotein (NP), recombinant (influenza A virus A/WSN/33 (H1N1)), P15682.
T1 chain: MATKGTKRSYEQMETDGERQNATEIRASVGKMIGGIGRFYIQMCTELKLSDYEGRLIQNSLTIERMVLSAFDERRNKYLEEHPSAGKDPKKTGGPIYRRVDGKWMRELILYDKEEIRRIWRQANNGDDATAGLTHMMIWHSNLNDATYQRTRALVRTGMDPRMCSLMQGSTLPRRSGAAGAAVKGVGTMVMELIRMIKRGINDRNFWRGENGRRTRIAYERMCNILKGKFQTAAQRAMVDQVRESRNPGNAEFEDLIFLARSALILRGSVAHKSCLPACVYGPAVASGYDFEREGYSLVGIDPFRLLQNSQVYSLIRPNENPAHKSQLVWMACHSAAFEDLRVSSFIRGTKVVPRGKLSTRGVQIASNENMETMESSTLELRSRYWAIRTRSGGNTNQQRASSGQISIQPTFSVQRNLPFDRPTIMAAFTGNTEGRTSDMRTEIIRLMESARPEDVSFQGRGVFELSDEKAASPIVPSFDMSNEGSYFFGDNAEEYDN
The experiment in a line: crystal structure; NP mixed with FA-6005 (final 0.5 mM) before crystallization; 0.1 M sodium acetate, 0.05 M magnesium acetate, 0.1 M MES pH 6.0, 7% PEG 8000, 5% glycerol; space group C222(1), one trimer in each asymmetric unit. The note with it: remark: other sources report otherwise.

B1: influenza A/WSN/33 virus nucleoprotein (NP), recombinant, P15682 1-498 (natural protein)
chain: MATKGTKRSYEQMETDGERQNATEIRASVGKMIGGIGRFYIQMCTELKLSDYEGRLIQNSLTIERMVLSAFDERRNKYLEEHPSAGKDPKKTGGPIYRRVDGKWMRELILYDKEEIRRIWRQANNGDDATAGLTHMMIWHSNLNDATYQRTRALVRTGMDPRMCSLMQGSTLPRRSGAAGAAVKGVGTMVMELIRMIKRGINDRNFWRGENGRRTRIAYERMCNILKGKFQTAAQRAMVDQVRESRNPGNAEFEDLIFLARSALILRGSVAHKSCLPACVYGPAVASGYDFEREGYSLVGIDPFRLLQNSQVYSLIRPNENPAHKSQLVWMACHSAAFEDLRVSSFIRGTKVVPRGKLSTRGVQIASNENMETMESSTLELRSRYWAIRTRSGGNTNQQRASSGQISIQPTFSVQRNLPFDRPTIMAAFTGNTEGRTSDMRTEIIRLMESARPEDVSFQGRGVFELSDEKAASPIVPSFDMSNEGSYFFGDNAEEYDN
Broadly, the stoichiometry N is a count of units in the complex or per binding partner. Regarding B1, the stoichiometry N was found to be 3.

Values taken from publication PMC8104107.
